This is an account of results in US20180094044A1.

Assay [1] concerns the target CD19 (UniProt P15391). Briefly: cell-based or functional assay.
The target in assay [2] is CD19 CAR with NGFR/CD271 spacer #N4. In words: MACS selection of transduced Jurkat cells with bead-labelled antibody, flow cytometry of fractions. Background: In flow cytometry, cells or beads pass a laser one at a time.
For assay [3], the target named is CD19 CAR with NGFR/CD271 spacer #N3. The description is as above.
Assay [4] concerns the target CD19 CAR with CD34 spacer #C4 (human). The assay is described as above.
In assay [5] the target is CD19 CAR with CD34 spacer #C7 (human). The assay is described as above.
Assay [6] addresses CD19 CAR with CD34 spacer #C3 (human). Described as above.
Assay [7] has as its target CD19 CAR with CD34 spacer #C2 (human). The assay is described as above.
The target of assay [8] is CD19 CAR with CD34 spacer #C5 (human). Described as above.
Chain of CD19 CAR with CD34 spacer #C5 (human) (P28906 42-110): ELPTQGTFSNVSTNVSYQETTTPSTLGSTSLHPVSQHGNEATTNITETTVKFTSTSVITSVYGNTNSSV

Chain of CD19 CAR with NGFR/CD271 spacer #N4 (P08138 66-227): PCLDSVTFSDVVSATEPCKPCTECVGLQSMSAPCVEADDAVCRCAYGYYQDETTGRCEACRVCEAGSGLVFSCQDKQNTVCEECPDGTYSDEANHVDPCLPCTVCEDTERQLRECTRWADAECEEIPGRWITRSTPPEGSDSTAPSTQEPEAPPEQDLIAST
Chain of CD19 CAR with CD34 spacer #C7 (human) (P28906 42-220): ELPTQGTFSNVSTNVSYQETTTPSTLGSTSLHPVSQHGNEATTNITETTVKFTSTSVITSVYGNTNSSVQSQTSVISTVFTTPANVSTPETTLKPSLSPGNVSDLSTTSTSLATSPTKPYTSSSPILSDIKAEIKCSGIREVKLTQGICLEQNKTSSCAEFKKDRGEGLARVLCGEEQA
Chain of CD19 CAR with NGFR/CD271 spacer #N3 (P08138 108-227): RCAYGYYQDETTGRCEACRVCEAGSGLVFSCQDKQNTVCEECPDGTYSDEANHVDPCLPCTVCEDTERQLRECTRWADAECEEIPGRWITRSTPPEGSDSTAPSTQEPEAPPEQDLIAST
Chain of CD19 CAR with CD34 spacer #C4 (human) (P28906 32-90): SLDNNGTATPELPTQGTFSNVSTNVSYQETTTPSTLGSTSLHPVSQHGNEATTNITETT
Chain of CD19 CAR with CD34 spacer #C2 (human) (P28906 32-63): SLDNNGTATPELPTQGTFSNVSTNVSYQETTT
Chain of CD19 CAR with CD34 spacer #C3 (human) (P28906 42-90): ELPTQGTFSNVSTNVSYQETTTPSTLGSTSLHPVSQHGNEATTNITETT
Chain of UniProt P15391 (P15391 20-556 limits assumed): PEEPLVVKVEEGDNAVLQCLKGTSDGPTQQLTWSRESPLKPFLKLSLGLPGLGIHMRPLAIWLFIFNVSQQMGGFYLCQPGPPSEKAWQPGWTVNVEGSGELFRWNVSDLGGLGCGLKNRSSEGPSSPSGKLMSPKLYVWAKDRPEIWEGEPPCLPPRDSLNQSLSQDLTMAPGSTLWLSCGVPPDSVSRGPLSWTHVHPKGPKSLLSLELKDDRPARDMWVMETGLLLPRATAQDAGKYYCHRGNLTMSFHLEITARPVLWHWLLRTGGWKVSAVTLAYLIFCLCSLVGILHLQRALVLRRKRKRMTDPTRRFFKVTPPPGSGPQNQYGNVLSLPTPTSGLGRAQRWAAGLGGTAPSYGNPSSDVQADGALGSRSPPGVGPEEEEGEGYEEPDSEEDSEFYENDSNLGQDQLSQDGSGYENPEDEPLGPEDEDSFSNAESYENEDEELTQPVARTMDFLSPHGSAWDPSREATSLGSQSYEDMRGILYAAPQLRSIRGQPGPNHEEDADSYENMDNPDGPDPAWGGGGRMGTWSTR

Regarding “CD19 CAR with the IgG4 CH2CH3 as spacer domain (from UniProt P01861 99-327)”, the killing of REH cells at 0.1:1 effector to target cell ratio in assay [1] is 48.9%.
Turning to CD271 monoclonal antibody ME20.4, the values for the percent positive cells before MACS in assay [2] and in assay [3] were 51.4% and 60.1%, respectively. Moreover, the figures for the percent positive cells in flow through in assay [2] and in assay [3] were 49.7% and 57.2%, respectively.
For the substance CD34 monoclonal antibody QBend10, the percent positive cells before MACS was determined as 64.3% in assay [4]; 78.4% in assay [5]; 61.6% in assay [6]; 68.7% in assay [7]; 65.5% in assay [8]. Further, the percent positive cells in flow through in assay [4] amounted to 47%; in assay [5], 67.1%; in assay [6], 47.6%; in assay [7] it was 68.1%; in assay [8], 41.1%.
